Measurements from publication PMC9306000.

Substrate: CC(C)=C[C@@H]1[C@@H](C(=O)SCCNC(=O)CCNC(=O)[C@H](O)C(C)(C)COP(=O)(O)OP(=O)(O)OC[C@H]2O[C@@H](n3cnc4c(N)ncnc43)[C@H](O)[C@@H]2OP(=O)(O)O)C1(C)C
Test: purified protein
Conditions: 1 mM (S)-pyrethrolone, 50 mM Tris-HCl pH 7.5, 25 °C, 10 min

B1: TcGLIP (Tanacetum cinerariifolium) (protein)
chain: SQQAAALFIFGDSVFDPGNNNHINTHVNFKANFWPYGQSYFSSPTGRFSDGRIIPDFIAEYASLPIIPAYLEPNNDFTHGANFASAGAGALIASHAGLAVGLQTQLRYFGDLVDHYRQNLGDIKSRQLLSDAVYLFSCGGNDYQSPYYPYTQEQYVDIVIGNMTNVIKGIYEKGGRKFGVVNVPLIGCWPGMRAKQPGNTCNTEVDELTRLHNQAFAKRLEQLEKQLEGFVYAKFDLSTAILNRMKNPSKYGFKEGESACCGSGPFGGNYDCGRIKEFGLCDNATEYFFFDPFHPNELASRQFAEMFWDGDSMVTQPYNLKALFEGKPSTKYLPNDEL
B1 gave a Km of 520 ± 95 µM, a Vmax of 0.14 µmol/min/mg and a Vmax/Km of 269 µL/min/mg.
